Source: a protein production outcome set (Wang et al. 2014)

Assay: label from the status in PepcDB records

MDTCGVGYVALGEAGPVGNMTVVDSPGQEVLNQLDVKTSSEMTSAEASVEMSLPTPLPGFEDSPDQRRLPPEQESLSRLEQPDLSSEMSKVSKPRASKPGRKRGGRTRKGPKRPQQPNPPSAPLVPGLLDQSNPLSTPMPKKRGRKSKAELLLLKLSKDLDRPESQSPKRPPEDFETPSGERPRRRAAQVALLYLQELAEELSTALPAPVSCPEGPKVSSPTKPKKIRQPAACPGGEEVDGAPRDEDFFLQVEAEDVEESEGPSESSSEPEPVVPRSTPRGSTSGKQKPHCRGMAPNGLPNHIMAPVWKCLHLTKDFREQKHSYWEFAEWIPLAWKWHLLSELEAAPYLPQEEKSPLFSVQREGLPEDGTLYRINRFSSITAHPERWDVSFFTGGPLWALDWCPVPEGAGASQYVALFSSPDMNETHPLSQLHSGPGLLQLWGLGTLQQESCPGNRAHFVYGIACDNGCIWDLKFCPSGAWELPGTPRKAPLLPRLGLLALACSDGKVLLFSLPHPEALLAQQPPDAVKPAIYKVQCVATLQVGSMQATDPSECGQCLSLAWMPTRPHQHLAAGYYNGMVVFWNLPTNSPLQRIRLSDGSLKLYPFQCFLAHDQAVRTLQWCKANSHFLVSAGSDRKIKFWDLRRPYEPINSIKRFLSTELAWLLPYNGVTVAQDNCYASYGLCGIHYIDAGYLGFKAYFTAPRKGTVWSLSGSDWLGTIAAGDISGELIAAILPDMALNPINVKRPVERRFPIYKADLIPYQDSPEGPDHSSASSGVPNPPKARTYTETVNHHYLLFQDTDLGSFHDLLRREPMLRMQEGEGHSQLCLDRLQLEAIHKVRFSPNLDSYGWLVSGGQSGLVRIHFVRGLASPLGHRMQLESRAHFNAMFQPSSPTRRPGFSPTSHRLLPTP
protein production: failed

MSSPSRTVTLPDIMCPKCIKCGSERTHHSRVRPSERTLSMLFLRPIRCRQCKERFWVKNSNAFLALGGVLFIGALLITTVWLIIEHNMADPYAGSAPEIGTEDPADSVARGTSKSQNGQEALSAPAPGTRGTHDVTQSPGSIPSSAPARNPLEDHRFTVRLYQEAANNGDADSQYKLGLLYLTGNGALQDFAEAAKWLQLAAEQGYGPAQYELGLIYRNGYGLPTDHVQSYVWLNLAAAAGVQQAMGARDEVMRALSSKQLAQAQKISREWLAARTGPESGKEADRVESAHPRRK
protein production: failed

MEGGYKLNITKAIVVAIYIIVGAALGVIIIPEVVTDLGIHHHAVITNYYVDGFIGIIIFFIIFGLFINKVTYAFKQFEQLIMRRSAVEILFATIGLIIGLFISVMVSFILEMIGNSILNHFVPMIITIILCYLGFQFGLKKRDEMLMFLPENMARSMSNNIRRATPKIVDTSAIIDGRILDIIRCGFIDGDILIPQGVINELQVIADAKDSVKREKGQRGLDILNQLYDLDYPTRVIHPTQSHSDIDTLLIKLAQQYHAHVITTDFNLNKVCHVQGITALNVNDLSEAIKPNVHQGDQLSILLTKIGKEPGQGVGYLDDGTMVVVDNAKSYIGQQVNLEVVSLLQTSSGRIVFAKFVD
protein production: failed

MTYEAFVELVERLWEEVPEDFKRGLQGVHVFPEAKPEPGLEGVWRLGEYLDPGPPSAFGGFEDLGRHIALYYGSFLEVAGEGFDWEAEVWETLLHELRHHLESLAGRDDLVQEDLRRLDAFRRGGPSGEG
protein production: not failed

MVFNLVVNIIGIVVFIAIAYLFSKQKHAINWRSVGVMLVLEVLLAWFLTGSQVGVDAVKAAADGFTWLVNVSYDGIAFALASWVNVKSMDFVTSSLLPILLIVPLFDILTYIGVLPWIIKWVGRGLAYITGQPKFESFFVVEMMFLGNTEALAVSQLQLKQMKAQRNLTIAMMSMSCVTASILGAYIKMMPGQFILTAVPMNVLNAAIIAAILNPVEVKPEEDTIAKISGSAAVEETTATTETSGSEELANEQVKEAKPAREPFFSFLGDSILGAGRLILIIAANVIAFVALAKLIDKLLGLINSNLSLENIFGVVMFPFAWLLGFNPSDAFQMASYMGTKLVTNEFVVMGEVSSKVNDFAPHFRAVLTVFLTSFANFSTIGMIIGAFKGIVDREKNDLISRNVGYMLLSGILVSLLSAGVVGLFVW
protein production: failed

MDKYRLLLLGGGRGLFDIDEDFMHWIDEFIEEHSNSIEITIVTGKNKKLYDNLTHKKPLKNIKVLGFVNDMYNLIRECDLMLTKPGGATIFEAIQSQTPVLVKMPKVGQEIENAKFIIDKGLGMIYSDDLDLKNIFYKLVSNEFDSIINFMKKNLKEFKTVIHPEKIADYISELIDNHLEHHHHHH
protein production: failed

MLITSSLLPPSGTWIFNINSLFCSLSIKNALSNLPLMRFCNSSTTQHTSTLVISLFIISPENIIFFFRIFYYCDNMEREEFLKYLRQGKYDKLAKLINSYSDILSFLDELFTSNKKDDVRRALLVLKRLDNEVIERYLYYILLNLNEKRIIAKEAEEILKKITNKESVEEAILEIAKKPLDEKIVYLFLQNMKEGNIFFRAILEHTKSKNMEESIKILLKNYNSEMILKILANKLYSSEKDERELTINILLNIVDSLTDEQKNILRGHLSVSLLGDEDKKLYRKFKQLFEKLDIPAELSDEQIKSLLKSHGKTTLNIILRENIKLPANFYNREFLKDFLYTGDEEKQFVGVKLISLKKDSKKKVDLLFRFLNYGYGKAKTAAIRELKKIAQNNNELKKYIENKTLMYAKKMNLGLKISSLRILKEFAKKEHLEFLINEHKRLKELVYKLEEEKFMGGFRHLLMMEEEIRKCNVAMRLIEEIVAEICLKNDIHYNDLKISEKLGYEFYRTMELIGVKNLNLIDIHEFLEDVKRDGELITYLSGIVINNNKIDDNLAKKILEVTEKAEMEDKDVLNANKIMIYASLNRVDKIGEIINMAEGYYSKLAFINGVKKFIDEKLLDEEKINLLIPKIAEMIYSTKKLRLMALEFFKNYPNELVLPILINEIGNYRGEDKLMIDVISNVIFKYPNNIHSIRELLNTDKRNSALKILLKVSEKRPELLEDFIYLLAGMYSSANEEDKKLIKKILKNITTEEQKLILKPIIGDL
protein production: failed

MSNNMQTVRESYEAFHRRDLPGVLAALAPDVRWTHPDGMSPYGLGGTKHGHDEVIAFIRHVPTHIAEMRLAPDEFIESGERIVVLGTRRVTAVNGRSATLKFVHVWRFENGRAVTFEDHFDTAEMIRLITA
protein production: not failed

MIAHMTRDNEYKTIKDRLITLVEKEQAHRTLNQYNSDKANHDITRLSNKMRLLRRLIEHPVILNEKVSSLGNNTKRAVKGLATGLVMVAVTITAISARDYWGEITASFIIAMSFIYALREIFKDDLRDMLWRWISKGKAKWRRHYFDPTTGKQVGDKEEWLDYKKLSELPDRIQAIRKKRIVQREEQILHYRSHTEMSTSRFMSGYEETRETMMIDLRAIMRQMDKGSNHIYQLNNGQVSRESVEKRHLLNLIAKEKHHKGEPTYYRWKIVLNRSRIVDIESIPLT
protein production: failed

MFDNLQRKFLNLIGIEIEEEDKPQESTKAKEENVKPKHETPKVVTIGKANQTEVTVYNLKLFDEVVKVCDALRENKIVVFNLEQVAEDHIQRIIDFVSGAVYVLDAKIHKVSKKIFVVVPRSIDLEVDEQLKEEFRTKGVFAWLK
protein production: failed

RPAIRKRLLKPKVLDSSPRALVGHRAEVLEDVGATSGQVRLDGSIWSARSMDPTHTFAEGEIVSVIDIQGTTAIVWKEA
protein production: not failed

KAFLEDMKKYAETFLEPWFKAPNKGTFQIVYKSRNNSHVNREEVIRELAGIVCTLNSENKVDLTNPQYTVVVEIIKAVCCLSVVK
protein production: not failed

MPSGRTHTKINLISLPVVLFMLFSYGLTNFDFLLTFAIGFLVGTTFLTPDLDTYSNAYNKWGFLRIFWYPYKKVMPHRSFFTHTIILGDVIRIAYMLIVFSPFLFLLNVIALDGNLIEMAKEHEVEIVTFVMGIVVASTLHIIADKVNTRRKKMMRKKKKRRR
protein production: failed

MPIEIITDSGADLPQSYIREHRIAFLPLVVHWNGQDYKDGITIEPKQVYDAMRQGHTVKTAQPSPLAMKELFLPYAKENRPCLYIAFSSKLSGTYQTAMAVRSELLDEYPEFRLTIIDSKCASLGQGLAVMKAVELAKQNTPYNLLCETIESYCRHMEHIFTVDNLDYLARGGRISKTAAAFGGLLNIKPLLHVEDGALIPLEKWRGRKKVLKRMVELMGERGDDLQKQTIGISHADDEETALELKQMIEETHGCTRFFLSDIGSAIGAHAGPGTIALFFLNKYIEI
protein production: not failed

MTGEGRYEEVEAEARTLAALPRRPWRRRPPHWEARVLATGAAVMHGRMAEALDELDTLIAELEPVGLNSQMLRLIARSNRVVALSGLRRYAEAETVANGVLRELNQIAHRAPVSGLETNTLRHLATVLCGLARHEEAEAVVRGNLSRANGPAAGVLHTTLAQSLNGQGRYEEALAEVRRSPPRPPRYAAGHPDLVAAEALYGLGRRAEAEDAVRRSLADCERWLHPAHPRTGEARALLARVTGPKPGEESRGEPGE
protein production: failed
